Results taken from patent US20070276125A1.
Positions of bridges follow the written chain, without caps; N, C: chain ends. No end group written: not given here.

Columns and labels:
human C1q (human) [1] = molecular target: human C1q (human) (UniProt P02745); assay: reverse ELISA: PAP on C1q-coated plate, no inhibitor
FcγIII [2] = assay: reverse ELISA: PAP on FcγIII-coated plate, no inhibitor
FcγIIa [3] = assay: reverse ELISA: PAP on FcγIIa-coated plate, no inhibitor
FcγIIb [4] = assay: reverse ELISA: PAP on FcγIIb-coated plate, no inhibitor
[5] = molecular target: myelin basic protein (MBP, Sigma); assay: reverse ELISA: rabbit PAP on MBP-coated plate, no inhibitor
human C1q (human) [6] = molecular target: human C1q (human) (UniProt P02745); assay: reverse ELISA: rabbit PAP on C1q-coated plate, no inhibitor
FcγIII [7] = assay: reverse ELISA: rabbit PAP on FcγIII-coated plate, no inhibitor
FcγIIa [8] = assay: reverse ELISA: rabbit PAP on FcγIIa-coated plate, no inhibitor
FcγIIb [9] = assay: reverse ELISA: rabbit PAP on FcγIIb-coated plate, no inhibitor
Histone (Sigma) [10] = assay: reverse ELISA: rabbit PAP on histone-coated plate, no inhibitor
whole human IgG4 = assay: reverse ELISA: immune complexes on IgG4-coated plate, no inhibitor
[11] = molecular target: myelin basic protein (MBP, Sigma); assay: reverse ELISA: binding of MBP to IgG PAP immune complexes, no inhibitor
Histone (Sigma) [12] = assay: reverse ELISA: binding of histones to IgG PAP immune complexes, no inhibitor
[13] = molecular target: peroxidase-anti-peroxidase (PAP) immune complex (preformed immune complex of peroxidase and anti-peroxidase IgG); assay: reverse ELISA, competition: soluble histone pre-incubated with rabbit PAP, then histone-coated plate; lower = more inhibition
[14] = molecular target: peroxidase-anti-peroxidase (PAP) immune complex (preformed immune complex of peroxidase and anti-peroxidase IgG); assay: reverse ELISA, competition: soluble MBP pre-incubated with rabbit PAP, then MBP-coated plate; lower = more inhibition
[15] = molecular target: peroxidase-anti-peroxidase (PAP) immune complex (preformed immune complex of peroxidase and anti-peroxidase IgG); assay: reverse ELISA, competition: pre-incubated with PAP, then RF-coated plate (competitor: RF); lower = more inhibition
[16] = molecular target: peroxidase-anti-peroxidase (PAP) immune complex (preformed immune complex of peroxidase and anti-peroxidase IgG); assay: reverse ELISA, competition: peptide with immune complexes, IgG4-coated plate (competitor: IgG4); lower = more inhibition
[17] = molecular target: peroxidase-anti-peroxidase (PAP) immune complex (preformed immune complex of peroxidase and anti-peroxidase IgG); assay: reverse ELISA, competition: pre-incubated with PAP, then FcγIII-coated plate (competitor: FcγIII); lower = more inhibition
[18] = molecular target: peroxidase-anti-peroxidase (PAP) immune complex (preformed immune complex of peroxidase and anti-peroxidase IgG); assay: reverse ELISA, competition: pre-incubated with PAP, then FcγIIa-coated plate (competitor: FcγIIa); lower = more inhibition
[19] = molecular target: peroxidase-anti-peroxidase (PAP) immune complex (preformed immune complex of peroxidase and anti-peroxidase IgG); assay: reverse ELISA, competition: pre-incubated with PAP, then FcγIIb-coated plate (competitor: FcγIIb); lower = more inhibition
[20] = molecular target: peroxidase-anti-peroxidase (PAP) immune complex (preformed immune complex of peroxidase and anti-peroxidase IgG); assay: reverse ELISA, competition: pre-incubated with rabbit PAP, then MBP-coated plate (competitor: MBP); lower = more inhibition
[21] = molecular target: peroxidase-anti-peroxidase (PAP) immune complex (preformed immune complex of peroxidase and anti-peroxidase IgG); assay: reverse ELISA, competition: pre-incubated with rabbit PAP, then histone-coated plate (competitor: histone); lower = more inhibition
[22] = molecular target: peroxidase-anti-peroxidase (PAP) immune complex (preformed immune complex of peroxidase and anti-peroxidase IgG); assay: reverse ELISA, competition: pre-incubated with PAP, then C1q-coated plate (competitor: C1q); OD = PAP bound, lower = more inhibition
[23] = molecular target: human monomeric IgG (Research Diagnostics); assay: RF test, competition: peptide pre-incubated with human monomeric IgG, washed, then 200 I.U. RF (competitor); OD = RF bound, lower = more inhibition
[24] = molecular target: peroxidase-anti-peroxidase (PAP) immune complex (preformed immune complex of peroxidase and anti-peroxidase IgG); assay: reverse ELISA, competition: pre-incubated with rabbit PAP, then RF-coated plate (competitor: RF); lower = more inhibition
[25] = molecular target: peroxidase-anti-peroxidase (PAP) immune complex (preformed immune complex of peroxidase and anti-peroxidase IgG); assay: reverse ELISA, competition: pre-incubated with rabbit PAP, then C1q-coated plate (competitor: C1q); lower = more inhibition
[26] = molecular target: peroxidase-anti-peroxidase (PAP) immune complex (preformed immune complex of peroxidase and anti-peroxidase IgG); assay: reverse ELISA, competition: pre-incubated with rabbit PAP, then FcγIII-coated plate (competitor: FcγIII); lower = more inhibition
[27] = molecular target: peroxidase-anti-peroxidase (PAP) immune complex (preformed immune complex of peroxidase and anti-peroxidase IgG); assay: reverse ELISA, competition: pre-incubated with rabbit PAP, then FcγIIa-coated plate (competitor: FcγIIa); lower = more inhibition
[28] = molecular target: peroxidase-anti-peroxidase (PAP) immune complex (preformed immune complex of peroxidase and anti-peroxidase IgG); assay: reverse ELISA, competition: pre-incubated with rabbit PAP, then FcγIIb-coated plate (competitor: FcγIIb); lower = more inhibition
[29] = molecular target: human monomeric IgG (Research Diagnostics); assay: RF test, competition: peptide pre-incubated 1 hour with human monomeric IgG, washed, then 200 I.U. RF (competitor); OD = RF bound, lower = more inhibition

FcγIIb, sequence (P31994 43-217): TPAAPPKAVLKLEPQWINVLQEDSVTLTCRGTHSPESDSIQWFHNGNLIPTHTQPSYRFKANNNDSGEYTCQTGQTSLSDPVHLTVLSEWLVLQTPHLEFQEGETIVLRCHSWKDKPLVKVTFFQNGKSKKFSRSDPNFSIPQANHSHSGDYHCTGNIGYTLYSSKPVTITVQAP
human C1q (human), sequence (P02745 23-245 limits assumed, chain 1 of 3): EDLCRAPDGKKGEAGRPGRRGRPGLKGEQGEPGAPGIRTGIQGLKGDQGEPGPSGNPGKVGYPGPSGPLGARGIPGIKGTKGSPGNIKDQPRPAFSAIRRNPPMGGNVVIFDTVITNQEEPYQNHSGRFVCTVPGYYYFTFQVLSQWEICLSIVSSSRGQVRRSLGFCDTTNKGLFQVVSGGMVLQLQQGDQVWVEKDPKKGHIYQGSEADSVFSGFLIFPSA
human C1q (human), sequence (P02746 28-253 limits assumed, chain 2 of 3, further chain): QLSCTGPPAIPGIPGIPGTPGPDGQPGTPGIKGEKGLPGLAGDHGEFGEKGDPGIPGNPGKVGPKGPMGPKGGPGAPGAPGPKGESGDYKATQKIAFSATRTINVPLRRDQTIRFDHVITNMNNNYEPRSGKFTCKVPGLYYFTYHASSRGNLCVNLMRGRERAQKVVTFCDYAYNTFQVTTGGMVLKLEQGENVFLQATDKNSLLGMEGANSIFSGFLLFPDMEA
human C1q (human), sequence (P02747 29-245 limits assumed, chain 3 of 3, further chain): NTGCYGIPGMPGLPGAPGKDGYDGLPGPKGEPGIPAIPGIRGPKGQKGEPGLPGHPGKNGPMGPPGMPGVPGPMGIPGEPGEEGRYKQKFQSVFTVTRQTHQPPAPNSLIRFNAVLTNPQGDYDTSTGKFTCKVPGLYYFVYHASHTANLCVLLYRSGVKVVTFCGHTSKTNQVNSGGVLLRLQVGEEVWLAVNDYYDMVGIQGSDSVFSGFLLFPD
FcγIIa, sequence (P12318 34-217): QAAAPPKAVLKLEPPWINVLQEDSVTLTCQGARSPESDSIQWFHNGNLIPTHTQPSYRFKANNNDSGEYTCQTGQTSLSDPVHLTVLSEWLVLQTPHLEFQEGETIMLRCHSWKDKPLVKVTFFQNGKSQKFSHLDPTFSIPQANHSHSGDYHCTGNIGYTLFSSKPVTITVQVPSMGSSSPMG

OD 405 nm [15]	OD 405 nm [16]	OD 450 nm [17]	OD 450 nm [18]	OD 450 nm [19]	OD 405 nm [20]	OD 405 nm [21]	OD 405 nm [22]	OD 405 nm [23]	Molecule	other results
–	–	–	–	–	–	–	–	–	peroxidase-anti-peroxidase (PAP) immune complex (preformed immune complex of peroxidase and anti-peroxidase IgG)	OD 405 nm (human C1q (human) [1]): 0.467 OD; OD 450 nm (FcγIII [2]): 3.6 OD; OD 450 nm (FcγIIa [3]): 3.6 OD; OD 450 nm (FcγIIb [4]): 3.6 OD; OD 405 nm [5]: 1.03 OD; OD 405 nm (human C1q (human) [6]): 2.35 OD; OD 405 nm (FcγIII [7]): 1.59 OD; OD 405 nm (FcγIIa [8]): 1.6 OD; OD 405 nm (FcγIIb [9]): 1.39 OD; OD 405 nm (Histone (Sigma) [10]): 1.27 OD; OD 405 nm (whole human IgG4): 0.716 OD; OD 405 nm [11]: 2.34 OD; OD 405 nm (Histone (Sigma) [12]): 2.11 OD
–	–	–	–	–	–	–	–	–	Histone (Sigma)	OD 405 nm [13]: 0.057 OD
–	–	–	–	–	–	–	–	–	myelin basic protein (MBP, Sigma)	OD 405 nm [14]: 0.139 OD
0.106 OD	0.129 OD	1.6 OD	1.15 OD	1.21 OD	0.489 OD	0.444 OD	0.205 OD	1.32 OD	PCARHLGELVWCT (disulfide 2-12 (inferred)) [… peptide (SEQ ID NO:41)]	–
0.152 OD	0.191 OD	3.5 OD	3.4 OD	3.28 OD	0.569 OD	0.359 OD	0.247 OD	1.31 OD	RCARHLGELVWCT (disulfide 2-12 (inferred)) [… peptide (SEQ ID NO:5)]	–
0.109 OD	0.096 OD	2.53 OD	2.54 OD	1.95 OD	0.473 OD	0.363 OD	0.193 OD	1.23 OD	DCARHLGELVWCT (disulfide 2-12 (inferred)) [… peptide (SEQ ID NO:4)]	–
–	0.107 OD	–	–	–	–	–	–	–	APPDCARHLGELVWCT (cyclized by a disulfide bond between the two cysteine residues) [… peptide (printed in Table 8 with SEQ ID NO:14)]	–
0.622 OD	0.557 OD	1.34 OD	1.48 OD	1.07 OD	0.706 OD	0.729 OD	–	1.4 OD	DCAWHLGELAACT (cyclized by a disulfide bond between the two cysteine residues) [… peptide (SEQ ID NO:42)]	–
–	–	2.41 OD	2.43 OD	2.26 OD	–	–	0.458 OD	1.42 OD	DCAAHLGELAACT (cyclized by a disulfide bond between the two cysteine residues) [… peptide (SEQ ID NO:40)]	–
–	–	–	–	–	–	–	–	–	DCAFHLGELVWCT (cyclized by a disulfide bond between the two cysteine residues) [… peptide (SEQ ID NO:3)]	OD 405 nm [24]: 0.267 OD; OD 405 nm [25]: 0.859 OD; OD 405 nm [26]: 0.81 OD; OD 405 nm [27]: 0.66 OD; OD 405 nm [28]: 0.51 OD; OD 405 nm [29]: 0.962 OD
